Assay results as given in PMC12102759 (2025).

B1: NOTCH4 peptide 1606-1621 (Neurogenic locus notch homolog protein 4), 16-mer library wild type / NSP9 (ORF1ab Nsp9, residues 4141-4253) (parent complex)
chain 1: QGAWLGAPEPWEPLLD
chain 2: NNELSPVALRQMSCAAGTTQTACTDDNALAYYNTTKGGRFVLALLSDLQDLKWARFPKSDGTGTIYTELEPPCRFVTDTPKGPKVKYLYFIKGLNNLNRGMVLGSLAATVRLQ
B2: AZIN2 peptide 1-16 (Antizyme inhibitor 2), 16-mer library wild type / NSP3 ADRP (ORF1ab Nsp3b ADRP, residues 1023-1192) (parent complex)
chain 1: MAGYLSESDFVMVEEG
chain 2: not shown

Variants of: B1
Assay: bait immobilised on MaxiSorp plates (10 µg), library pre-cleared on GST, 2 h binding at 4 °C, five washes; one round per day, days 1-4; value from days 2 and 3

Variant | screen value
chain 1 G6A | 9.6e-05 average fractional NGS count over selection days 2 and 3 (reads of this peptide / all reads for the bait, averaged over …
chain 1 P10N | 0.000425 average fractional NGS count over selection days 2 and 3 (reads of this peptide / all reads for the bait, averaged over …
chain 1 P10L | 0.00033 average fractional NGS count over selection days 2 and 3 (reads of this peptide / all reads for the bait, averaged over …
chain 1 P10S | 0.000591 average fractional NGS count over selection days 2 and 3 (reads of this peptide / all reads for the bait, averaged over …
chain 1 P13Y | 0.000242 average fractional NGS count over selection days 2 and 3 (reads of this peptide / all reads for the bait, averaged over …
chain 1 P13I | 0.00354 average fractional NGS count over selection days 2 and 3 (reads of this peptide / all reads for the bait, averaged over …
chain 1 P13K | 0.00839 average fractional NGS count over selection days 2 and 3 (reads of this peptide / all reads for the bait, averaged over …
chain 1 P13E | 0.000762 average fractional NGS count over selection days 2 and 3 (reads of this peptide / all reads for the bait, averaged over …
chain 1 P13G | 0.00615 average fractional NGS count over selection days 2 and 3 (reads of this peptide / all reads for the bait, averaged over …
chain 1 L14M | 0.00305 average fractional NGS count over selection days 2 and 3 (reads of this peptide / all reads for the bait, averaged over …
chain 1 L14A | 0.00317 average fractional NGS count over selection days 2 and 3 (reads of this peptide / all reads for the bait, averaged over …
chain 1 W11L | 0.0119 average fractional NGS count over selection days 2 and 3 (reads of this peptide / all reads for the bait, averaged over …
chain 1 W11S | 0.000466 average fractional NGS count over selection days 2 and 3 (reads of this peptide / all reads for the bait, averaged over …
chain 1 W11D | 0.000384 average fractional NGS count over selection days 2 and 3 (reads of this peptide / all reads for the bait, averaged over …
chain 1 P8E | 0.000231 average fractional NGS count over selection days 2 and 3 (reads of this peptide / all reads for the bait, averaged over …
chain 1 A7R | 0.000186 average fractional NGS count over selection days 2 and 3 (reads of this peptide / all reads for the bait, averaged over …
chain 1 A7G | 0.00198 average fractional NGS count over selection days 2 and 3 (reads of this peptide / all reads for the bait, averaged over …

Variant | screen value
chain 1 A3F | 0.00137 average fractional NGS count over selection days 2 and 3 (reads of this peptide / all reads for the bait, averaged over …
chain 1 L15I | 0.0135 average fractional NGS count over selection days 2 and 3 (reads of this peptide / all reads for the bait, averaged over …
chain 1 L15P | 0.000417 average fractional NGS count over selection days 2 and 3 (reads of this peptide / all reads for the bait, averaged over …
chain 1 E12Y | 0.00153 average fractional NGS count over selection days 2 and 3 (reads of this peptide / all reads for the bait, averaged over …
chain 1 E12Q | 0.00173 average fractional NGS count over selection days 2 and 3 (reads of this peptide / all reads for the bait, averaged over …
chain 1 E12G | 0.00333 average fractional NGS count over selection days 2 and 3 (reads of this peptide / all reads for the bait, averaged over …
chain 1 W4Y | 0.000452 average fractional NGS count over selection days 2 and 3 (reads of this peptide / all reads for the bait, averaged over …
chain 1 L5I | 0.000857 average fractional NGS count over selection days 2 and 3 (reads of this peptide / all reads for the bait, averaged over …
chain 1 Q1L | 0.000598 average fractional NGS count over selection days 2 and 3 (reads of this peptide / all reads for the bait, averaged over …
chain 1 Q1T | 0.000204 average fractional NGS count over selection days 2 and 3 (reads of this peptide / all reads for the bait, averaged over …
chain 1 Q1E | 0.00488 average fractional NGS count over selection days 2 and 3 (reads of this peptide / all reads for the bait, averaged over …
chain 1 Q1H | 0.000824 average fractional NGS count over selection days 2 and 3 (reads of this peptide / all reads for the bait, averaged over …
chain 1 Q1I | 0.000162 average fractional NGS count over selection days 2 and 3 (reads of this peptide / all reads for the bait, averaged over …
chain 1 E9G | 0.00198 average fractional NGS count over selection days 2 and 3 (reads of this peptide / all reads for the bait, averaged over …
chain 1 E9K | 0.000266 average fractional NGS count over selection days 2 and 3 (reads of this peptide / all reads for the bait, averaged over …
chain 1 E9W | 0.00272 average fractional NGS count over selection days 2 and 3 (reads of this peptide / all reads for the bait, averaged over …
chain 1 E9I | 0.00116 average fractional NGS count over selection days 2 and 3 (reads of this peptide / all reads for the bait, averaged over …

Variants of: B2
Assay: as above

Variant | screen value
chain 1 D9K | 0.00156 average fractional NGS count over selection days 2 and 3 (reads of this peptide / all reads for the bait, averaged over …
chain 1 D9Q | 0.000191 average fractional NGS count over selection days 2 and 3 (reads of this peptide / all reads for the bait, averaged over …
chain 1 D9G | 0.000412 average fractional NGS count over selection days 2 and 3 (reads of this peptide / all reads for the bait, averaged over …
chain 1 D9N | 0.0514 average fractional NGS count over selection days 2 and 3 (reads of this peptide / all reads for the bait, averaged over …
chain 1 E14S | 0.000258 average fractional NGS count over selection days 2 and 3 (reads of this peptide / all reads for the bait, averaged over …
chain 1 E14R | 0.000473 average fractional NGS count over selection days 2 and 3 (reads of this peptide / all reads for the bait, averaged over …
chain 1 E14P | 0.0011 average fractional NGS count over selection days 2 and 3 (reads of this peptide / all reads for the bait, averaged over …
chain 1 E14Q | 0.00039 average fractional NGS count over selection days 2 and 3 (reads of this peptide / all reads for the bait, averaged over …
chain 1 E14N | 0.000346 average fractional NGS count over selection days 2 and 3 (reads of this peptide / all reads for the bait, averaged over …
chain 1 G16N | 0.00027 average fractional NGS count over selection days 2 and 3 (reads of this peptide / all reads for the bait, averaged over …
chain 1 G16H | 0.000328 average fractional NGS count over selection days 2 and 3 (reads of this peptide / all reads for the bait, averaged over …
chain 1 G16A | 0.00182 average fractional NGS count over selection days 2 and 3 (reads of this peptide / all reads for the bait, averaged over …
chain 1 G16E | 0.000344 average fractional NGS count over selection days 2 and 3 (reads of this peptide / all reads for the bait, averaged over …
chain 1 G16V | 0.000213 average fractional NGS count over selection days 2 and 3 (reads of this peptide / all reads for the bait, averaged over …
chain 1 G16S | 0.000137 average fractional NGS count over selection days 2 and 3 (reads of this peptide / all reads for the bait, averaged over …
chain 1 G16F | 0.000171 average fractional NGS count over selection days 2 and 3 (reads of this peptide / all reads for the bait, averaged over …
chain 1 V11T | 0.000107 average fractional NGS count over selection days 2 and 3 (reads of this peptide / all reads for the bait, averaged over …
chain 1 V11H | 7.39e-05 average fractional NGS count over selection days 2 and 3 (reads of this peptide / all reads for the bait, averaged over …
chain 1 V11L | 0.0066 average fractional NGS count over selection days 2 and 3 (reads of this peptide / all reads for the bait, averaged over …
chain 1 V11E | 0.000156 average fractional NGS count over selection days 2 and 3 (reads of this peptide / all reads for the bait, averaged over …
chain 1 E7K | 0.00106 average fractional NGS count over selection days 2 and 3 (reads of this peptide / all reads for the bait, averaged over …

Variant | screen value
chain 1 Y4W | 0.00197 average fractional NGS count over selection days 2 and 3 (reads of this peptide / all reads for the bait, averaged over …
chain 1 V13H | 0.00368 average fractional NGS count over selection days 2 and 3 (reads of this peptide / all reads for the bait, averaged over …
chain 1 V13M | 0.000618 average fractional NGS count over selection days 2 and 3 (reads of this peptide / all reads for the bait, averaged over …
chain 1 E15D | 9.82e-05 average fractional NGS count over selection days 2 and 3 (reads of this peptide / all reads for the bait, averaged over …
chain 1 E15T | 0.000718 average fractional NGS count over selection days 2 and 3 (reads of this peptide / all reads for the bait, averaged over …
chain 1 E15H | 0.00102 average fractional NGS count over selection days 2 and 3 (reads of this peptide / all reads for the bait, averaged over …
chain 1 E15S | 0.00159 average fractional NGS count over selection days 2 and 3 (reads of this peptide / all reads for the bait, averaged over …
chain 1 E15P | 7.42e-05 average fractional NGS count over selection days 2 and 3 (reads of this peptide / all reads for the bait, averaged over …
chain 1 G3K | 0.00086 average fractional NGS count over selection days 2 and 3 (reads of this peptide / all reads for the bait, averaged over …
chain 1 G3H | 8.37e-05 average fractional NGS count over selection days 2 and 3 (reads of this peptide / all reads for the bait, averaged over …
chain 1 G3Q | 0.000537 average fractional NGS count over selection days 2 and 3 (reads of this peptide / all reads for the bait, averaged over …
chain 1 G3D | 0.00677 average fractional NGS count over selection days 2 and 3 (reads of this peptide / all reads for the bait, averaged over …
chain 1 G3M | 0.000375 average fractional NGS count over selection days 2 and 3 (reads of this peptide / all reads for the bait, averaged over …
chain 1 M12N | 0.00321 average fractional NGS count over selection days 2 and 3 (reads of this peptide / all reads for the bait, averaged over …
chain 1 M12H | 0.000156 average fractional NGS count over selection days 2 and 3 (reads of this peptide / all reads for the bait, averaged over …
chain 1 M12A | 0.00221 average fractional NGS count over selection days 2 and 3 (reads of this peptide / all reads for the bait, averaged over …
chain 1 M12S | 0.000927 average fractional NGS count over selection days 2 and 3 (reads of this peptide / all reads for the bait, averaged over …
chain 1 S8H | 6.7e-05 average fractional NGS count over selection days 2 and 3 (reads of this peptide / all reads for the bait, averaged over …
chain 1 S8T | 0.00377 average fractional NGS count over selection days 2 and 3 (reads of this peptide / all reads for the bait, averaged over …
chain 1 S8M | 0.000908 average fractional NGS count over selection days 2 and 3 (reads of this peptide / all reads for the bait, averaged over …
